In article PMC10786121, “Rab29-dependent asymmetrical activation of leucine-rich repeat kinase 2” (Science (New York, N.Y.), 2023):

Tests used:
[1] = target: leucine-rich repeat kinase 2 (LRRK2) (UniProt Q5S007); assay: cryo-EM structure; complex reconstituted by mixing LRRK2, Rab29EM, GTP analog (GppNHp), ATP and Mg2+; three oligomeric assemblies (monomer, dimer, tetramer); C2 symmetry imposed for dimer and tetramer; settings: remark: other sources report otherwise
[2] = target: leucine-rich repeat kinase 2 (LRRK2) (UniProt Q5S007); assay: cryo-EM 2D classification; Rab29 T71A/S72A–LRRK2 complex; 2D classification performed with cross-correlation (fig. S9E); settings: remark: other sources report otherwise
[3] = target: T1, leucine-rich repeat kinase 2 (LRRK2) (UniProt Q5S007 1-2527); assay: cryo-EM structure; complex reconstituted by mixing LRRK2, Rab29EM, GTP analog (GppNHp), ATP and Mg2+; three oligomeric assemblies (monomer, dimer, tetramer); C2 symmetry imposed for dimer and tetramer; settings: both partners purified
T1 construct: leucine-rich repeat kinase 2 (LRRK2), wild type; domains ARM, ANK, LRR, ROC, COR, KIN, WD40; Near full-length LRRK2^peri could be modelled in the tetramer; Seen as monomer, dimer and tetramer in complex with Rab29; Also stands for the WT LRRK2 transfected into HEK293 cells in the functional rows; also called WT LRRK2; LRRK2^peri
T1 sequence (Q5S007 whole entry): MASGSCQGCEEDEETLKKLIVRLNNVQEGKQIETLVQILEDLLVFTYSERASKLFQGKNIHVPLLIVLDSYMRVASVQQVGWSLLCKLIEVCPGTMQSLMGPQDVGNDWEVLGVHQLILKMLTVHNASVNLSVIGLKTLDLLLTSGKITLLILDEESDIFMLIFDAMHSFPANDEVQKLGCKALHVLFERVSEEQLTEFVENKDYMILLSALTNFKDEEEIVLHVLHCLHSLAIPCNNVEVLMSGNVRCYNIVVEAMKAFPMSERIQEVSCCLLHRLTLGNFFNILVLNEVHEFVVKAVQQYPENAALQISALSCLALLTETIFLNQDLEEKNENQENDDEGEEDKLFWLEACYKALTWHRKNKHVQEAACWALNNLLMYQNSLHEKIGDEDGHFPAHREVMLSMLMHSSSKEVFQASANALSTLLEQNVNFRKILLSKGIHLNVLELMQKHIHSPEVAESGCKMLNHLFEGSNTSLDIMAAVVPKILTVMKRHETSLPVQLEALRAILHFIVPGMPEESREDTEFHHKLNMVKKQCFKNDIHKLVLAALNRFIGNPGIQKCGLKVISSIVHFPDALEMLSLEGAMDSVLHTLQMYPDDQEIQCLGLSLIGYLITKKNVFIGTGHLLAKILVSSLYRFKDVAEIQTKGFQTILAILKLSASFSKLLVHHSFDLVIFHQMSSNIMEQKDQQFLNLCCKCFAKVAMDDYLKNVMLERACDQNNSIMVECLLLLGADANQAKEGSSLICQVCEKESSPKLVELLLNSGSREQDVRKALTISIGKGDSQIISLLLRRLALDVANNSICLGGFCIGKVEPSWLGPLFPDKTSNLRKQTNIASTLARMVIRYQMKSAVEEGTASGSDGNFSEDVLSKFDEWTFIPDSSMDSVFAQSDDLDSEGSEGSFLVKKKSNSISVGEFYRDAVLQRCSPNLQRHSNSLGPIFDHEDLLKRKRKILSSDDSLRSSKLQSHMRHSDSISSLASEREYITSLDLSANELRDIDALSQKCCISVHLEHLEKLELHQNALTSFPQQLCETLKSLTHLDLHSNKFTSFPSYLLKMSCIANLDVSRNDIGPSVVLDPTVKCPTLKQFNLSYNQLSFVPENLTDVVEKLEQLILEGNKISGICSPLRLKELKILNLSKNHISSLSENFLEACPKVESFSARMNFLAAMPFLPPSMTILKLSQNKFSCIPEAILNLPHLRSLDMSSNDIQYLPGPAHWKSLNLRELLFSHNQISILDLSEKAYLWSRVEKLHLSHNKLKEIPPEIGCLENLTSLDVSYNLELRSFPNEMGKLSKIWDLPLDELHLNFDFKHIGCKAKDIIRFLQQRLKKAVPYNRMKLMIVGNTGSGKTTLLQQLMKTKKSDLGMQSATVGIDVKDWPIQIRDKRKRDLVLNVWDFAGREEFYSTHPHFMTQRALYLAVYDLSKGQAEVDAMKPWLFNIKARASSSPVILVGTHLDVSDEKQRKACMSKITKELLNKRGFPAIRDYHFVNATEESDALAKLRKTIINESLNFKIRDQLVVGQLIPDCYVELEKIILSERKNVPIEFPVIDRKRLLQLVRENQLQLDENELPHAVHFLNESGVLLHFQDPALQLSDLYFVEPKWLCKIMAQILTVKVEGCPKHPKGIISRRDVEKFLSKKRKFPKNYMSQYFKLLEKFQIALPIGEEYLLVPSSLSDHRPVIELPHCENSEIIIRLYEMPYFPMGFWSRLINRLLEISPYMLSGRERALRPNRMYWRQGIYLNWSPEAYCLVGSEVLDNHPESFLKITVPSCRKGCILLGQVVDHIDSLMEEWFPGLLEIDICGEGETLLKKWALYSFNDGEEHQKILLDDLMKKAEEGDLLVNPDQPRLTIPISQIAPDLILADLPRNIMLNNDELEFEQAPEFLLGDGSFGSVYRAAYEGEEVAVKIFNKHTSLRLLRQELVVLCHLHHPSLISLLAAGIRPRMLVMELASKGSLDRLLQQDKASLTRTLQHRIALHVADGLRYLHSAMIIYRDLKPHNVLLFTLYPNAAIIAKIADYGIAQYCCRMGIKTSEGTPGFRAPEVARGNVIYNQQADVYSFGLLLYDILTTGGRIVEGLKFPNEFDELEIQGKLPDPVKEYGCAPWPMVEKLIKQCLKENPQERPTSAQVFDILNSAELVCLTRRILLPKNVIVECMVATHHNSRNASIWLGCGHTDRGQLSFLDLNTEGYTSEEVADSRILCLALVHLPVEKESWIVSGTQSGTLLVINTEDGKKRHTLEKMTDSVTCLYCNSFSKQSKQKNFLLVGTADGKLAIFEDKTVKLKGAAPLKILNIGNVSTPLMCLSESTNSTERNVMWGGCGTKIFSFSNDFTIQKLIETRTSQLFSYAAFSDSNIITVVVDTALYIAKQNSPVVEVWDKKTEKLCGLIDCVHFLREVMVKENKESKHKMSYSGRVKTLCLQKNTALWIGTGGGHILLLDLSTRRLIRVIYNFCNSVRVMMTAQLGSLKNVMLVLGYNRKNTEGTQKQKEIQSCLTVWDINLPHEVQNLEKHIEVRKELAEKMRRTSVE

stoichiometry N [1] | stoichiometry N [2] | stoichiometry N [3] | Molecule
4 | 4 |  | leucine-rich repeat kinase 2 (LRRK2), Q5S007 1-2527
 |  | 1 | Rab29EM (Rab29 Q67L, T71A, S72A) (natural protein, Rab29, a Rab GTPase encoded in the PARK16 locus, with three point mutations; constructs are in the supplementary Materials and Methods; also called Rab29^peri) MGSRDHLFKVLVVGDAAVGKTSLVQRYSQDSFSKHYKSTVGVDFALKVLQWSDYEIVRLQLWDIAGLERFAAMTRLYYRDASACVIMFDVTNATTFSNSQRWKQDLDSKLTLPNGEPVPCLLLANKCDLSPWAVSRDQIDRFSKENGFTGWTETSVKENKNINEAMRVLIEKMMRNS
